According to paper PMC9986279, “Biochemical and genetic examination of two aminotransferases from the hyperthermophilic archaeon Thermococcus kodakarensis” (Frontiers in Microbiology, 2023):

Legend:
[1] = molecular target: T1, TK2268 protein (Thermococcus kodakarensis, UniProt Q5JHU0); test: aminotransferase activity with and without added PLP; format: biochemical; settings: 20 μM PLP, 50 mM HEPES pH 7.4, 80°C
T1 construct: full length, C-terminal His6-tag kept, expressed in T. kodakarensis KPD2; monomer 45,116 Da; dimer (98 kDa) that may assemble to octamer (327 kDa)

[2] = molecular target: T2, TK0548 protein (Thermococcus kodakarensis, UniProt Q5JF51); test: as above; format: biochemical; settings: 20 μM PLP, 50 mM HEPES pH 7.4, 80°C
T2 construct: full length, no tag (own stop codon in primer), pET21a(+), E. coli BL21-CodonPlus(DE3)-RIL; monomer 43,608 Da, dimer (85 kDa)
T2 sequence (Q5JF51 1-389): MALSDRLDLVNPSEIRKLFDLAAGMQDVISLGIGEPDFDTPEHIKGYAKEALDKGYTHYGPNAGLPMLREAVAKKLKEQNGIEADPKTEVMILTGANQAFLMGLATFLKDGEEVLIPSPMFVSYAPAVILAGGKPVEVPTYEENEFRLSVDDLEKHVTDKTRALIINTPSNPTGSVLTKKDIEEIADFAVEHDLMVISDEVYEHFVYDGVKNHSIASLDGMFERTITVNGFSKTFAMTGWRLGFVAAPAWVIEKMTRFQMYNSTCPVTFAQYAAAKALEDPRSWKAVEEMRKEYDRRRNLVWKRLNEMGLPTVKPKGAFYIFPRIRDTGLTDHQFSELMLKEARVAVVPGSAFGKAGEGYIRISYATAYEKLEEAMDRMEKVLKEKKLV

[3] = substrate: N[C@@H](Cc1ccccc1)C(=O)O; test: aminotransferase assay, Glu formed quantified by HPLC after o-phthalaldehyde derivatization; format: biochemical, Thermococcus kodakarensis; settings: 10 mM 2-oxoglutarate, 20 μM PLP, 50 mM HEPES pH 7.4, 80°C
Description: (§1) aminotransferase assay, Glu formed quantified by HPLC after o-phthalaldehyde derivatization on TK0548 protein

[4] = substrate: N[C@@H](Cc1c[nH]c2ccccc12)C(=O)O; test: as above; format: biochemical, Thermococcus kodakarensis; settings: 10 mM 2-oxoglutarate, 20 μM PLP, 50 mM HEPES pH 7.4, 80°C
Description: as §1

[5] = substrate: CSCC[C@H](N)C(=O)O; test: as above; format: biochemical, Thermococcus kodakarensis; settings: 10 mM 2-oxoglutarate, 20 μM PLP, 50 mM HEPES pH 7.4, 80°C
Description: as §1

[6] = substrate: N[C@@H](Cc1c[nH]cn1)C(=O)O; test: as above; format: biochemical, Thermococcus kodakarensis; settings: 10 mM 2-oxoglutarate, 20 μM PLP, 50 mM HEPES pH 7.4, 80°C
Description: as §1

[7] = substrate: O=C(O)CCC(=O)C(=O)O; test: as above; format: biochemical, Thermococcus kodakarensis; settings: 10 mM Phe, 20 μM PLP, 50 mM HEPES pH 7.4, 80°C
Description: as §1

[8] = substrate: N[C@@H](Cc1ccc(O)cc1)C(=O)O; test: as above; format: biochemical, Thermococcus kodakarensis; settings: 10 mM 2-oxoglutarate, 20 μM PLP, 50 mM HEPES pH 7.4, 80°C
Description: as §1

[9] = substrate: CC(=O)C(=O)O; test: aminotransferase assay, Ala formed quantified by HPLC after o-phthalaldehyde derivatization; format: biochemical, Thermococcus kodakarensis; settings: 10 mM Phe, 20 μM PLP, 50 mM HEPES pH 7.4, 80°C
Description: aminotransferase assay, Ala formed quantified by HPLC after o-phthalaldehyde derivatization on TK0548 protein

[10] = substrate: N[C@@H](CC(=O)O)C(=O)O; test: purified protein; settings: 10 mM pyruvate, 20 μM PLP, 50 mM HEPES pH 7.4, 80°C
[11] = substrate: CC(C)C[C@H](N)C(=O)O; test: aminotransferase assay, Ala formed quantified by HPLC after o-phthalaldehyde derivatization; format: biochemical, Thermococcus kodakarensis; settings: 10 mM pyruvate, 20 μM PLP, 50 mM HEPES pH 7.4, 80°C
Description: (§2) aminotransferase assay, Ala formed quantified by HPLC after o-phthalaldehyde derivatization on TK2268 protein

[12] = substrate: CC(=O)C(=O)O; test: as above; format: biochemical, Thermococcus kodakarensis; settings: 50 mM Leu, 20 μM PLP, 50 mM HEPES pH 7.4, 80°C
Description: as §2

[13] = substrate: N[C@@H](CCC(=O)O)C(=O)O; test: as above; format: biochemical, Thermococcus kodakarensis; settings: 10 mM pyruvate, 20 μM PLP, 50 mM HEPES pH 7.4, 80°C
Description: as §2

[14] = substrate: O=C(O)CCC(=O)C(=O)O; test: aminotransferase assay, Glu formed quantified by HPLC after o-phthalaldehyde derivatization; format: biochemical, Thermococcus kodakarensis; settings: 50 mM Leu, 20 μM PLP, 50 mM HEPES pH 7.4, 80°C
Description: (§3) aminotransferase assay, Glu formed quantified by HPLC after o-phthalaldehyde derivatization on TK2268 protein

[15] = substrate: N[C@@H](Cc1ccc(O)cc1)C(=O)O; test: as above; format: biochemical, Thermococcus kodakarensis; settings: 10 mM 2-oxoglutarate, 20 μM PLP, 50 mM HEPES pH 7.4, 80°C; remark: listed apart in the source
Description: as §3

Cc1ncc(COP(=O)(O)O)c(C=O)c1O [pyridoxal 5′-phosphate]
aminotransferase activity with and without added PLP [1]: suggesting that the TK0548 and TK2268 proteins are PLP-dependent aminotransferases | aminotransferase activity with and without added PLP [2]: suggesting that the TK0548 and TK2268 proteins are PLP-dependent aminotransferases

B1: TK0548 protein (Thermococcus kodakarensis KOD1) (protein)
chain: T2 sequence (Q5JF51 1-389)
notes: full length, no tag (own stop codon in primer), pET21a(+), E. coli BL21-CodonPlus(DE3)-RIL; monomer 43,608 Da, dimer (85 kDa)
Km [3]: 670 ± 60 µM | Vmax [3]: 483 µmol/min/mg | kcat [3]: 351 ± 10 s⁻¹ | kcat/Km [3]: 524000 M⁻¹ s⁻¹ | Km [4]: 1100 ± 100 µM | Vmax [4]: 359 µmol/min/mg | kcat [4]: 261 ± 10 s⁻¹ | kcat/Km [4]: 237000 M⁻¹ s⁻¹ | Km [5]: 64000 ± 9000 µM | Vmax [5]: 169 µmol/min/mg | kcat [5]: 123 ± 14 s⁻¹ | kcat/Km [5]: 1920 M⁻¹ s⁻¹ | Km [6]: 4400 ± 400 µM | Vmax [6]: 179 µmol/min/mg | kcat [6]: 130 ± 6 s⁻¹ | kcat/Km [6]: 29600 M⁻¹ s⁻¹ | Km [7]: 1500 ± 200 µM | Vmax [7]: 334 µmol/min/mg | kcat [7]: 243 ± 10 s⁻¹ | kcat/Km [7]: 162000 M⁻¹ s⁻¹ | Km [8]: 1400 ± 200 µM | Vmax [8]: 419 µmol/min/mg | kcat [8]: 305 ± 19 s⁻¹ | kcat/Km [8]: 218000 M⁻¹ s⁻¹ | Km [9]: 48000 ± 5000 µM | Vmax [9]: 137 µmol/min/mg | kcat [9]: 100 ± 7 s⁻¹ | kcat/Km [9]: 2070 M⁻¹ s⁻¹

B2: TK2268 protein (Thermococcus kodakarensis KOD1) (protein)
chain: MRYKKRKYFMAGRINILQRSKIRELFEKASKMENVISLGIGEPDFDTPEVIKEAAKRAIDEGYTHYTPNAGIPEFREAIAEYYKEFYNVDVDMNNIIVTAGAYEATYLAFESILEQGDDVIIPDPAFVCYVEDAKIAEAGIIRIPLREENKFRIDPDELLEAITKRTRMIVMNYPNNPTGAIMKKDVAKAIADIAQDYNIYILSDEPYEHFLYEGARHHPMIKYAPDNTILANSFSKTFAMTGWRLGFAIAPEQVIRDMIKLHAYVIGNVTSFIQIAGITALRDKRSWEAVERMRQVYDERRKLVLKYLNDMPHITPFRPKGAFYIWAKIDPELDMTSEDFAEWLLENAGVVVIPGTAFGRQGEGWIRISYATEKEKLIEAMERMKEALSKL
notes: full length, C-terminal His6-tag kept, expressed in T. kodakarensis KPD2; monomer 45,116 Da; dimer (98 kDa) that may assemble to octamer (327 kDa)
Km [10]: 2140 ± 220 µM | Vmax [10]: 5.42 µmol/min/mg | kcat [10]: 4.07 s⁻¹ | kcat/Km [10]: 1900 M⁻¹ s⁻¹ | Km [11]: 36300 ± 4300 µM | Vmax [11]: 4.68 µmol/min/mg | kcat [11]: 3.52 ± 0.23 s⁻¹ | kcat/Km [11]: 100 M⁻¹ s⁻¹ | Km [12]: 2720 ± 350 µM | Vmax [12]: 3.76 µmol/min/mg | kcat [12]: 2.83 ± 0.16 s⁻¹ | kcat/Km [12]: 1040 M⁻¹ s⁻¹ | Km [13]: 2170 ± 270 µM | Vmax [13]: 7.42 µmol/min/mg | kcat [13]: 5.57 ± 0.23 s⁻¹ | kcat/Km [13]: 2570 M⁻¹ s⁻¹ | Km [14]: 190 ± 30 µM | Vmax [14]: 4.45 µmol/min/mg | kcat [14]: 3.35 ± 0.15 s⁻¹ | kcat/Km [14]: 17600 M⁻¹ s⁻¹ | Km [15]: 1450 ± 260 µM | Vmax [15]: 0.34 µmol/min/mg | kcat [15]: 0.26 ± 0.02 s⁻¹ | kcat/Km [15]: 180 M⁻¹ s⁻¹
